B1: Ras-related protein Rab-11B (Homo sapiens), Q15907 (parent)
chain: MGTRDDEYDYLFKVVLIGDSGVGKSNLLSRFTRNEFNLESKSTIGVEFATRSIQVDGKTIKAQIWDTAGQERYRAITSAYYRGAVGALLVYDIAKHLTYENVERWLKELRDHADSNIVIMLVGNKSDLRHLRAVPTDEARAFAEKNNLSFIETSALDSTNVEEAFKNILTEIYRIVSQKQIADRAAHDESPGNNVVDISVPPTTDGQKPNKLQCCQNL
partner: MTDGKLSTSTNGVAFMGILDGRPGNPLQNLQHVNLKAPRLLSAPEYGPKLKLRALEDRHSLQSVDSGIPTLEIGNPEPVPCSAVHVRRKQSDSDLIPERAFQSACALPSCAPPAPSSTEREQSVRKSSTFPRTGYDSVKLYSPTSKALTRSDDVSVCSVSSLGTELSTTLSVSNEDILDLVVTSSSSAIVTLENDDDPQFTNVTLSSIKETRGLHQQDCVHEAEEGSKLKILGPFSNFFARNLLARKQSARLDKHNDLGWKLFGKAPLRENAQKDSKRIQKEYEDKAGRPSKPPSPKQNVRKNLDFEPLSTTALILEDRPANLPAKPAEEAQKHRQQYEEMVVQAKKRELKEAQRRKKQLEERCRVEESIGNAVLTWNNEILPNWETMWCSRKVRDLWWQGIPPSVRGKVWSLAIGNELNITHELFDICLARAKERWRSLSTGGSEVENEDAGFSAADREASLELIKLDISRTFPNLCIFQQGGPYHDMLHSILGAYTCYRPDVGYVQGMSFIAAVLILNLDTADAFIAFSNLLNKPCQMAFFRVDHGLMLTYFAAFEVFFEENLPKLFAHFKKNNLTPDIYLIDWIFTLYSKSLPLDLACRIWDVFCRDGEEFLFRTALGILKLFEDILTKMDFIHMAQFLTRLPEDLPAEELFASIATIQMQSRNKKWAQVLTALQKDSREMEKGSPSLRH

Variants of: B1
Conditions: with tbc14_human TBC1D14, Q9P2M4

| Variant | effect of a mutation on the interaction |
| --- | --- |
| Q70A | increasing interaction strength |
| S25N | decreasing interaction strength |

— IntAct's records for PubMed 22613832
